Five molecules from US20170137512A1 can be followed below.

Test [1] addresses human Kv1.3 (Homo sapiens) (UniProt P22001). The test is described as follows: cell-based or functional assay.
Test [2] deals with T1, cyno Kv1.3 (Macaca fascicularis).
T1 chain: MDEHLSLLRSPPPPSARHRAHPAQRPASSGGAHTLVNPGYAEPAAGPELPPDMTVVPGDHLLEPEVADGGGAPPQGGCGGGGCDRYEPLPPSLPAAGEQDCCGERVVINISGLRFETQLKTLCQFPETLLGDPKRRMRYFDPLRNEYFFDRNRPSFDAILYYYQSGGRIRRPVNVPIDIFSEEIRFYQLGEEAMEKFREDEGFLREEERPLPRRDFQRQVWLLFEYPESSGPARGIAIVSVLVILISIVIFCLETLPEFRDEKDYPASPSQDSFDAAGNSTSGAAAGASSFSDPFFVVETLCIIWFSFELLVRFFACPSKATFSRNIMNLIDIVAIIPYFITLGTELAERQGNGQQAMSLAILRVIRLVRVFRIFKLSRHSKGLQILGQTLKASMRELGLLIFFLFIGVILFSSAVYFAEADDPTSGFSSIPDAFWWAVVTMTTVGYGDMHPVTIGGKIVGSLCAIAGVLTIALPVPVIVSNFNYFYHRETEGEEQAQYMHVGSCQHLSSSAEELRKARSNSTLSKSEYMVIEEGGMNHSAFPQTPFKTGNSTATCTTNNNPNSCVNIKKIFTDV

Test [3] deals with human Kv1.3 (Homo sapiens), P22001. The test is described as follows: cell-based or functional assay.
Test [4] concerns the target T1, cyno Kv1.3 (Macaca fascicularis). The test is described as follows: titration of radiolabeled margatoxin on CHO-cyKv1.3 cells.
Test [5] has as its target human Kv1.3 (Homo sapiens), P22001.
Test [6] has the same target. This is another data set of the same source.
For test [7] the target is unchanged. In words: cell-based or functional assay. The source holds these as a separate data set.

Read-outs that look alike come from different tables or passages of the source.

B1: A0194020A06 (VHH, not shown: small tags and cut ends)
VHH: EVQLVESGGGLVQAGGSLGLSCSASGLLFSRNSAGWYRQAPGKRREFVARIRMGGSINYADSVKGRFTVSRDNAKNMMYLQMNDLKPEDTAVYFCSGWREGFYEYWGQGTLVTVSS
In test [1], B1 registered an Average IC50, Kv1.3 current, IonFlux automated patch clamp, HEK293H cells of 13400 pM; an IC50, CD25 read out, CCR7-CD45RA- T cells stimulated with anti-CD3 of 36000 pM; an IC50, IFNγ read out, CCR7-CD45RA- T cells stimulated with anti-CD3 of 30000 pM.
With TIINVKCTSPKQCLPPCKAQFGQSAGAKCMNGKCKCYPH (modifications not checked) [unlabeled margatoxin (Alamone labs, Cat RTM-325), P40755 1-39], the IC50 in test [2] was found to be 240 pM. In test [3], the IC50, IFNγ read out, CCR7-CD45RA- T cells stimulated with anti-CD3 is 94 pM.
For the molecule TIINVKCTSPKQCLPPCKAQFGQSAGAKCMNGKCKCYPH (modifications not checked) [125I-margatoxin (Perkin Elmer, NEX083), P40755 1-39], the EC30 in test [4] is 150 pM.
Molecule RSCIDTIPKSRCTAFQCKHSMKYRLSFCRKTCGTC (modifications not checked) [ShK-1aJ (Smartox, #08SHK001), P29187 1-35] registered a half-inhibitory concentration (IC50) in test [2] of 240 pM. For the same molecule, the % inhibition in test [5] was 102%. The molecule further had an IC50 (read off the curve) in test [6] of 10000 pM. Also, in test [7], the IC50, CD25 read out, CCR7-CD45RA- T cells stimulated with anti-CD3 came out at 220 pM and the IC50, IFNγ read out, CCR7-CD45RA- T cells stimulated with anti-CD3 was determined as 65 pM. In test [3], this molecule yielded an Average IC50, Kv1.3 current, IonFlux automated patch clamp, HEK293H cells of 76 pM; an Average IC50, Kv1.3 current, IonWorks perforated patch clamp, CHL cells of 400 pM; an IC50, CD25 read out, CCR7-CD45RA- T cells stimulated with anti-CD3 of 270 pM; an IC50, CD25 read out, T cell activation assay of 730 pM. Also, in test [3], the IC50, CD25 read out, T cell activation assay, with 10 µM HSA stood at 38 pM; the IC50, IFNγ production, T-cell activation assay was determined as 41 pM; the IC50, IFNγ read out, CCR7-CD45RA- T cells stimulated with anti-CD3 came out at 76 pM; the IC50, IFNγ read out, T cell activation assay is 140 pM. The same molecule had an IC50, IFNγ read out, T cell activation assay, with 10 µM HSA in test [3] of 27 pM.

B2: A0194016B04 (VHH, not shown: small tags and cut ends)
VHH: EVQLVESGGGLVQAGGSLRLSCSASGLLFSVNSAGWYRQAPGKQRDFVARIRSGGSTNYADSVKGRFTISRDKATNTLYLQMNNLKPEDTAVYYCSSWRTEAYEYWGRGTLVTVSS
In test [1], B2 gave an Average IC50, Kv1.3 current, IonFlux automated patch clamp, HEK293H cells of 84000 pM and an Average IC50, Kv1.3 current, IonWorks perforated patch clamp, CHL cells of 34000 pM.

A word on the IC50: it is the concentration that inhibits the measured activity by half. Low readings indicate greater potency in that assay, high ones weaker potency in that assay. Broadly, the EC30 is the point of the concentration-response curve where the effect stands at 30%. A word on the % inhibition: it is the change of the read-out against control, counted positive when it falls.
